One block for each binder: values may come before it.
Key:
[1] = molecular target: T1, huCCR8 D26A (human, UniProt P51685 1-355); test: flow cytometry, transfected Expi293 cells, antibody at 50, 10 and 1 nM
T1 construct: Point mutant on transfected Expi293 cells
Description: (§1) To more precisely determine the specific amino acid residues that are crucial for antibody binding to human CCR8, point mutations were introduced to ECL2, ECL3 and N-terminal regions of human CCR8, as shown in the first column of Table 19. To evaluate the impact of each mutant, humanized anti-CCR8 antibody hu305-5W-3a was used to react with transfected Expi293 cells as described above with the concentration of 50 nM, 10 nM and 1 nM (results summarized in Table 19). The critical amino acids for hu305-5W-3a binding are marked with an “X” indicating a loss of >50% compared with wild type huCCR8, which is considered significant.

[2] = molecular target: T2, huCCR8 Y172A (human, UniProt P51685 1-355); test: as above
T2 construct: Point mutant on transfected Expi293 cells
Description: as §1

[3] = molecular target: T3, huCCR8 E177A (human, UniProt P51685 1-355); test: as above
T3 construct: Point mutant on transfected Expi293 cells
Description: as §1

[4] = molecular target: T4, huCCR8 L269A (human, UniProt P51685 1-355); test: as above
T4 construct: Point mutant on transfected Expi293 cells
Description: as §1

[5] = molecular target: T5, huCCR8 D178A (human, UniProt P51685 1-355); test: as above
T5 construct: Point mutant on transfected Expi293 cells
Description: as §1

[6] = molecular target: T6, huCCR8 M266A (human, UniProt P51685 1-355); test: as above
T6 construct: Point mutant on transfected Expi293 cells
Description: as §1

[7] = molecular target: T1, huCCR8 D26A; test: flow cytometry, transfected Expi293 cells, serial dilution from 200 nM
Description: (§2) In comparison, the 10A11 reference antibody recognizes D14, Y17, D19 on the N-terminal domain of huCCR8 as the mutation on these sites totally abolished the binding, indicating no overlap in epitope between the reference antibody 10A11 and hu305-5W-3a. To further confirm the critical roles of these sites for binding, the transfected Expi293 cells were stained with a serial dilution of hu305-5W-3a from 200 nM followed by detection with Alexa Fluor 647 Rabbit Anti-Human IgG (Cat.: 309-605-008 Jackson ImmunoResearch) to obtain a full binding curve. […] D178 and M266 are considered as 2nd tier epitopes having media impact on Hu305-5W-3a binding. Substitution them with Ala will lead to ˜3 folds decrease of EC50.

[8] = molecular target: T2, huCCR8 Y172A; test: as above
Description: as §2

[9] = molecular target: T3, huCCR8 E177A; test: as above
Description: as §2

[10] = molecular target: T4, huCCR8 L269A; test: as above
Description: as §2

[11] = molecular target: T5, huCCR8 D178A; test: as above
Description: as §2

[12] = molecular target: T6, huCCR8 M266A; test: as above
Description: as §2

[13] = molecular target: T7, human CCR8 (human, UniProt P51685 1-355); test: as above
T7 construct: Full length; also called huCCR8; C-C motif chemokine receptor 8
Description: as §2

[14] = molecular target: T8, Cynomolgus Monkey CCR8 (cynomolgus monkey, UniProt O97665 1-356 (rhesus entry)); test: flow cytometry, 293T-cynoCCR8 cells
T8 construct: also called cyno CCR8; cynoCCR8
From the text: (§3) After washing twice with FACS buffer, cells were resuspended with FACS buffer and acquired on a Beckton Dickinson LSR Fortessa™. Titration curves were generated using sigmoid dose-response of nonlinear fit from GraphPad, and the EC50s of representative antibodies are shown in Table 2.

[15] = molecular target: T9, human CCR8 N-terminal domain-mouse Fc tag fusion protein (human (CCR8 part), mouse IgG2a Fc); test: ELISA, plate coated with human CCR8 N-terminal domain-Fc fusion
T9 construct: also called huCCR8-N-mIgG2a; human CCR8 N-terminal protein
T9 chain: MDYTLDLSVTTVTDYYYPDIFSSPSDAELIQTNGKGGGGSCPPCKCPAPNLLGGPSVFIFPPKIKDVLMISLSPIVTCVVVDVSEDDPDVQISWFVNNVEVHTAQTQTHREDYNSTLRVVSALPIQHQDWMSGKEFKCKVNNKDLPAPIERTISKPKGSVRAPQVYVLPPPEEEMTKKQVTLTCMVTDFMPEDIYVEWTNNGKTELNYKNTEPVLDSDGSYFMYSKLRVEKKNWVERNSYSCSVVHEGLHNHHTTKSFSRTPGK
Description: To determine whether anti-CCR8 antibodies bind to the N-terminal domain of human CCR8, ELISA plates were coated with human CCR8 N-terminal domain-mouse Fc tag fusion protein (SEQ ID NO: 28 and 29) overnight at 4° C. After washing and blocking, serially diluted anti-CCR8 antibodies were added to plates and incubated for 1 hour at room temperature. After washing, diluted HRP goat anti-human IgG Fc or HRP goat anti-mouse kappa chain (for 433H) secondary antibodies were added to plates and incubated for 45 minutes at room temperature. After washing, TMB substrate was added to plates for developing and then stopped by adding TMB substrate stop solution. The absorbance was read at 450 nm using a plate reader. […] It is a non CCR8 N-terminal loop binder.

[16] = molecular target: T7, human CCR8; test: flow cytometry, Jurkat-human CCR8 cells
Description: To evaluate the binding activity of anti-CCR8 antibodies to bind CCR8 expressed on living cells, Jurkat cells were engineered to over-express human CCR8. Jurkat-human CCR8 cells were seeded in 96-well plate and incubated with a series of dilutions of anti-CCR8 antibodies. Goat anti-human IgG was used as secondary antibody to detect antibody binding to the cell surface. EC50 values for dose-dependent binding to human CCR8 were determined by fitting the dose-response data to the four-parameter logistic model with GraphPad Prism. As shown in Table 4 and FIG. 3 the CCR8 antibodies had high binding affinity to human CCR8.

[17] = molecular target: T7, human CCR8; test: flow cytometry, 293T-huCCR8 cells
From the text: as §3

[18] = molecular target: T10, mouse CCR8 (mouse, UniProt P56484 1-353); test: flow cytometry on transfected Expi293 cells, serial dilution
T10 construct: Full length, transiently expressed on Expi293 cells; also called muCCR8; CCR8-mo8
T10 sequence: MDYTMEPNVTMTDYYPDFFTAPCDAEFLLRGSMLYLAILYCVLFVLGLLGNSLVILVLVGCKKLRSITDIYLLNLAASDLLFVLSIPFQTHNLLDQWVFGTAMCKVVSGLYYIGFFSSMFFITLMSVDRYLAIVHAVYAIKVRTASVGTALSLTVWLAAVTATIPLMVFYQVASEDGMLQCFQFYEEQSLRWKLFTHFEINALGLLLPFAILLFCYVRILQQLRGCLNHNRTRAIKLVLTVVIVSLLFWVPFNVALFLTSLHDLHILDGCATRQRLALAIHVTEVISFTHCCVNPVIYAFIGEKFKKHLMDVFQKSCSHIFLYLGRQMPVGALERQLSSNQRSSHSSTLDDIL
Description: The plasmids containing these chimeric CCR8 constructs, and human CCR8 (CCR8-hu8) and mouse CCR8 (CCR8-mo8) as control, were used to transfect Expi293™ cells for transient protein expression, after which cells were incubated with a serial dilution of the purified Ch305 as well as a reference antibody 10A11 from Shionogi (US 2022/0064312 A1). The binding of each construct was evaluated detection with Alexa Fluor 647 Rabbit Anti-Human IgG (Cat.: 309-605-008 Jackson ImmunoResearch). […] In addition, replacing the human CCR8 N-terminal region with mouse CCR8 N-terminal (CCR8_Ch1) also weakly impairs the affinity, which means human CCR8 N-terminal contributes to the binding activity of human CCR8 with Ch305. In the meanwhile, substituting mouse CCR8 N-terminal with human CCR8 N-terminal (CCR8_Ch5) rescues the binding activity of murine CCR8 with Ch305 to some extent much weaker than the binding activity of wild type human CCR8 to Ch305, which means human CCR8 N-terminal contributes but weakly or partly to the binding activity of human CCR8 with Ch305. […] In comparison, the reference antibody 10A11 binds to the N-terminal region of CCR8 only and it has no binding to ECL1, ECL2 and ECL3, that is, the epitope of 10A11 on human CCR8 locates only on N-terminal of human CCR8 (FIG. 9B).

[19] = molecular target: T7, human CCR8; test: cell-based or functional assay

T8 sequence (O97665 other isoform, or with tags, fused parts or gaps): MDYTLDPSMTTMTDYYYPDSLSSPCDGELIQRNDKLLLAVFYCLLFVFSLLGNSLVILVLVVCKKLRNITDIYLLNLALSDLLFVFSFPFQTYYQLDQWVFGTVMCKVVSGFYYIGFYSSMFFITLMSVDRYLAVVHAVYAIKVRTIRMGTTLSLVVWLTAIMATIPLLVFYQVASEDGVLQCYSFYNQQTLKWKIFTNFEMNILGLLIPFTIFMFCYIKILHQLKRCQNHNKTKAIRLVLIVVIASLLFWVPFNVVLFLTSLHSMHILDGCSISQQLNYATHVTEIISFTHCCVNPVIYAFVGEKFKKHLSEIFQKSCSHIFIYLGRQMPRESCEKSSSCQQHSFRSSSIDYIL

loss of binding compared with wild type huCCR8 [1]: > 50% | loss of binding compared with wild type huCCR8 [2]: > 50% | loss of binding compared with wild type huCCR8 [3]: > 50% | loss of binding compared with wild type huCCR8 [4]: > 50% | loss of binding compared with wild type huCCR8 [5]: > 50% | loss of binding compared with wild type huCCR8 [6]: > 50% | EC50 [7]: 16.8 nM | fold change of EC50 against wild type huCCR8 [7]: > 2 fold | EC50 [8]: 26.3 nM | fold change of EC50 against wild type huCCR8 [8]: > 4 fold | EC50 [9]: 25.4 nM | fold change of EC50 against wild type huCCR8 [9]: > 4 fold | EC50 [10]: 27.4 nM | fold change of EC50 against wild type huCCR8 [10]: > 4 fold | EC50 [11]: 18.3 nM | fold change of EC50 against wild type huCCR8 [11]: ~3 fold | EC50 [12]: 19.4 nM | fold change of EC50 against wild type huCCR8 [12]: ~3 fold | EC50 [13]: 6.3 nM
B1: hu305-5W-3a (antibody, V domains shown)
VH: QVQLKQSGPGLVKPSETLSLTCTVSGFSLAVYGVHWVRQPPGKGLEWLGVIWRGGTTDYNPSLKSRLTFSKDSSKSQVSLKLSSVTAADTAVYYCAKNRVTTVVAPNFYAMDYWGQGTLVTVSS
VL: DIVMTQSPDSLAVSLGERATINCKSSQSLLYSGNQKNYLAWYQQKPGQPPKLLIYWASTRKSGVPDRFSGSGSGTDFTLTISSLKAEDVAVYYCQQYYTYPLTFGQGTRLEIK

EC50 [14]: 4.1 nM | EC50 [15]: 5.01 nM | EC50 [16]: 9.37 nM | EC50 [17]: 3.67 nM | binding result [18]: no binding | IC50 (nM), ligand blocking activity (PathHunter beta-arrestin) [19]: 5.9 nM
B2: Ch305 (antibody, V domains shown)
VH: QVQMKQSGPSLVQPSQSLSITCTVSGFSLTSYGVHWVRQSPGKGLEWLGVIWRGGTTDYNAAFMSRLSFTKDSSKSQVFFKLNSLQADDTAIYYCAKNRVTTVVAPNFYAMDYWGQGTSVTVSS
VL: DIVMTQSPSSLAVSVGEKVTMSCKSSQSLLYSGNQKNYLAWYQQKPGQSPKLLIYWASTRKSGVPDRLTGSGSGTDFTLTISSVKAEDLAAYYCQQYYTYPLTFGAGTRLEIK

Reference: patent US20250115671A1 (BEIGENE, published 2025)
